# Assay results as given in patent US20170165337A1 (IMMATICS BIOTECHNOLOGIES, published 2017).
# Target: T1, HLA-A*02:01 (human)
# T1 construct: MHC class I monomer of the UV-ligand exchange assay; also called peptide-receptive MHC molecules; MHC class I
# Experiment: UV peptide-exchange ELISA
# Procedure, shortened: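 Peptide-MHC complexes formed by UV-mediated exchange of a UV-cleavable peptide for the test peptide; exchange yield quantified by β2m ELISA. Diluted 100-fold, captured on streptavidin-coated plates 1 h at 37 °C, detected with HRP anti-β2m and TMB at 450 nm against refolded HLA-A*02:01 monomer standards (15-500 ng/ml).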
row,Binder,peptide exchange yield
1,FLWEEKFNSL,≥ 75%
2,GLAESTGLLAV,50 to 75%
3,ILEEQPMDMLL,50 to 75%
4,ILLNEDDLVTI,50 to 75%
5,AAALIIHHV,50 to 75%
6,ALDIMIPMV,50 to 75%
7,ALLDQLHTLL,≥ 75%
8,ALLQKLQQL,50 to 75%
9,FIAPTGHSL,20 to 50%
10,FLVEPQEDTRL,50 to 75%
11,AVLQAVTAV,50 to 75%
12,IILPVEVEV,50 to 75%
13,ILEENIPVL,50 to 75%
14,ILLNPAYDVYL,50 to 75%
15,AASPIITLV,50 to 75%
16,ILQDLTFVHL,50 to 75%
17,ILSQPTPSL,50 to 75%
18,LAIVPVNTL,10 to 20%
19,LLFPQIEGIKI,50 to 75%
20,LLLTKPTEA,50 to 75%
21,ELLEGSEIYL,50 to 75%
22,ILYGTQFVL,50 to 75%
23,LLSTLHLLV,50 to 75%

row,Binder,peptide exchange yield
1,LLVDVEPKV,50 to 75%
2,LLYNSTDPTL,50 to 75%
3,LMADLEGLHL,50 to 75%
4,LMKDCEAEV,50 to 75%
5,LVYEAPETV,50 to 75%
6,MLLEHGITL,50 to 75%
7,NLLAHIWAL,50 to 75%
8,ELMHGVAGV,50 to 75%
9,NLQVTQPTV,50 to 75%
10,QVIPQLQTV,50 to 75%
11,FIDKFTPPV,≥ 75%
12,FLDMTNWNL,≥ 75%
13,GLWGTVVNI,50 to 75%
14,KLLEEICNL,≥ 75%
15,LLAELPASVHA,50 to 75%
16,ALAKPPVVSV,50 to 75%
17,FILPSSLYL,50 to 75%
18,ALATHILSL,50 to 75%
19,ALEDRVWEL,50 to 75%
20,ALSEKLARL,50 to 75%
21,ALVFELHYV,50 to 75%
22,ATPMPTPSV,20 to 50%
23,FIMDDPAGNSYL,50 to 75%

# Other lines, results leading:
row,peptide exchange yield,Binder
1,20 to 50%,VVAEELENV
2,20 to 50%,VIAELPPKV
3,≥ 75%,SLYDVSRMYV
4,≥ 75%,TIAPVTVAV
5,50 to 75%,RLLEFELAQL
6,50 to 75%,SLASIHVPL
7,≥ 75%,SLDLFNCEV
8,50 to 75%,SLYSALQQA
9,50 to 75%,TLENGVPCV
10,≥ 75%,VLAFLVHEL
11,≥ 75%,VLIKWFPEV
12,≥ 75%,VLLPQETAEIHL
13,≥ 75%,VLMDGSVKL
14,50 to 75%,VLMWEIYSL
15,50 to 75%,VLWELAHLPTL
16,50 to 75%,VMIQHVENL
17,50 to 75%,VTLEFPQLIRV
18,50 to 75%,YLLEEKIASL
19,50 to 75%,YLYQEQYFI
20,≥ 75%,YMAVTTQEV
21,20 to 50%,YMYEKESEL
22,50 to 75%,YLPYIFPNI
23,50 to 75%,SLITPLQAV
24,50 to 75%,VLAFENPQV
25,50 to 75%,YLIEPDVELQRI
26,50 to 75%,VLVQVSPSL
27,50 to 75%,YLGPVSPSL
